Reference: PMC8808184 (2021)
Each block holds one binder with its values, some of them ahead of it.

Legend:
E1 domain of human APLP1 = target: T1, E1 domain of human APLP1 (human, UniProt P51693 50-212, biotin (EZ-Link NHS-PEG4-Biotin, 1:1 molar ratio) where immobilised in BLI); test: BLI
T1 chain: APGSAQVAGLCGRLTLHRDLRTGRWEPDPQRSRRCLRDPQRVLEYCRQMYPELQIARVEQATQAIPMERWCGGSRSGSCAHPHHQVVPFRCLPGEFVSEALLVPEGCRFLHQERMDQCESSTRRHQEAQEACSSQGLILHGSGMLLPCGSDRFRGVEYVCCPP

E1 domain of chicken APP = target: T2, E1 domain of chicken APP (chicken, biotin (EZ-Link NHS-PEG4-Biotin, 1:1 molar ratio) where immobilised in BLI); test: BLI
T2 chain: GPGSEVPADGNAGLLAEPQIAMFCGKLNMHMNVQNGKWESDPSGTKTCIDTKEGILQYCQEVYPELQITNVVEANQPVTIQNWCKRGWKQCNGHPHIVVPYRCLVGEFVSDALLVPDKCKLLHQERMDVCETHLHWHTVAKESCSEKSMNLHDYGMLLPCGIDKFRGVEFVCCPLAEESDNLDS

Kd (E1 domain of human APLP1): 10.9 µM
B1: FN1–FN3 region of CNTN5 titrated against human APLP1(E1) and human APLP2(E1) (domain or fragment)
chain: PPGIVIVEEITESTATLSWSPAADNHSPISSYNLQARSPFSLGWQTVKTVPEIITGDMESAMAVDLNPWVEYEFRVVATNPIGTGDPSTPSRMIRTNEAVPKTAPTNVSGRSGRRHELVIAWEPVSEEFQNGEGFGYIVAFRPNGTRGWKEKMVTSSEASKFIYRDESVPPLTPFEVKVGVYNNKGDGPFSQIVVICSAEGEPSAAPTDVKATSVSVSEILVAWKHIKESLGRPQGFEVGYWKDMEQEDTAETVKTRGNESFVILTGLEGNTLYHFTVRAYNGAGYGPPSSEVSATTKKS

Kd (E1 domain of chicken APP): 20.9 µM
B2: FN1–FN3 region of chicken CNTN4, T751A and V752A (domain or fragment)
chain: GSTGSPPGPPEDVTIDEITDTTAQLSWRPGADNHSPITMYVVQARTPFSVGWQAVSTVPEVIDGKTFTATVVGLNPWVEYEFRVVAANLIGIGEPSRPSENRRTEEALPEVTPANVSGGGGSKSELVITWETVPEELQNGGGFGYVVAFRPFGTISWMQAAVASPDASRYVFRNESLPPFSPYEVKVGVYNNKGEGSFSPVTVVYSAEEEPTRAPITVLARSLSATDIEISWAPPRENQHKGRIQGYEVRCWRHDEKEENARKIRTVGNQTSAKVTNLQGNALYHLAVKAYNTAGTGPSSAMVNVTTKK

Kd (E1 domain of human APLP1): 9.1 µM
B3: FN1–FN3 region of CNTN3 titrated against human APLP1(E1) (domain or fragment)
chain: PPENVKVDEITDTTAQLSWKEGKDNHSPVISYSIQARTPFSVGWQTVTTVPEVIDGKTHTATVVELNPWVEYEFRVVASNKIGGGEPSLPSEKVRTEEAVPEVPPSEVNGGGGSRSELVITWDPVPEELQNGEGFGYVVAFRPLGVTTWIQTVVTSPDTPRYVFRNESIVPYSPYEVKVGVYNNKGEGPFSPVTTVFSAEEEPTVAPSQVSANSLSSSEIEVSWNTIPWKLSNGHLLGYEVRYWNGGGKEESSSKMKVAGNETSARLRGLKSNLAYYTAVRAYNSAGAGPFSATVNVTTKKT
